Assay results published in paper PMC6753076.

Target: PELI1 (UniProt Q96FA3)
Assay: anti-Flag co-immunoprecipitation, immunoblot
Conditions: reference: wild type; sites T382

- binding against the reference: lost
Substance: HPD (from UniProt P32754) T382A
